Results taken from patent US7387779B2, “Anti-angiogenic proteins and fragments and methods of use thereof” (Beth Israel Deaconess Medical Center, priority 1998, dated 2008).

Assays:
[1] = tested on: HPE cells; experiment: Proliferation, methylene blue staining; assay type: cell-based, human
Experimental: In the methylene-blue staining method, 7000 cells were plated into each well of a 96-well plate, and treated as described above. Cells were then counted using the method of Oliver et al. (1989, J. Cell. Sci. 92:513-8). After 48 hours of treatment, all wells were washed with 100 μl of PBS, and the cells fixed with 10% formalin in neutral-buffered saline (Sigma Chemical Co., St. Louis, Mo., USA). The cells were then stained with 1% methylene blue (Sigma) in 0.01M borate buffer, pH 8.5. Wells were washed with 0.01M borate buffer, and the methylene blue extracted from the cells with 0.1N HCl/ethanol, and the absorbance measured in a microplate reader (Bio-Rad, Hercules, Calif., USA) at 655 nm. Polymyxin B (Sigma) at a final concentration of 5 μg/ml was used to inactivate endotoxin (Liu, S. et al., 1997, Clin. Biochem. 30:455-63).
Endothelial cell proliferation was performed by ^3H-thymidine incorporation or methylene blue staining as described above in Example 25. C-PAE cells (passages 2-4) were grown to confluence and kept contact inhibited for 48 hours. 786-O, PC-3 and WM-164 cells were used as non-endothelial controls, and were cultured as described in Example 25, above. HPE (human primary prostate epithelial cells) were cultured in keratinocyte-SFM supplemented with bovine pituitary and recombinant human EGF (Life Technologies/Gibco BRL, Gaithersburg, Md., USA). […]

[2] = tested on: Caspase-3 in C-PAE cells; experiment: Caspase-3 assay; assay type: cell-based, bovine; details: 20 μg/ml Tumstatin; TNF-α positive control
[3] = tested on: PC-3 cells; experiment: MTT cell viability assay; assay type: cell-based, human; details: 0-50 μg/ml
Experimental: Cell viability was measured by MTT assay, as described above.
The effects of Tumstatin-44-131 and Tum-5-125-C-A on cell viability of C-PAE cells were not seen in control PC-3 and DU-145 cells, as shown in FIGS. 52C and 52D. […] The activity of Tumstatin-44-131 is therefore specific to endothelial cells.

[4] = target: T1, αvβ3 integrin protein (Homo sapiens, UniProt P05106+P06756); experiment: Competition proliferation assay with soluble αvβ3 protein, WM-164 cells; assay type: cell-based; details: αvβ3 protein at 2 μg/ml
T1 construct: purchased CHEMICON Int'l, Temecula, Calif., USA
T1 sequence (P06756 31-889 limits assumed): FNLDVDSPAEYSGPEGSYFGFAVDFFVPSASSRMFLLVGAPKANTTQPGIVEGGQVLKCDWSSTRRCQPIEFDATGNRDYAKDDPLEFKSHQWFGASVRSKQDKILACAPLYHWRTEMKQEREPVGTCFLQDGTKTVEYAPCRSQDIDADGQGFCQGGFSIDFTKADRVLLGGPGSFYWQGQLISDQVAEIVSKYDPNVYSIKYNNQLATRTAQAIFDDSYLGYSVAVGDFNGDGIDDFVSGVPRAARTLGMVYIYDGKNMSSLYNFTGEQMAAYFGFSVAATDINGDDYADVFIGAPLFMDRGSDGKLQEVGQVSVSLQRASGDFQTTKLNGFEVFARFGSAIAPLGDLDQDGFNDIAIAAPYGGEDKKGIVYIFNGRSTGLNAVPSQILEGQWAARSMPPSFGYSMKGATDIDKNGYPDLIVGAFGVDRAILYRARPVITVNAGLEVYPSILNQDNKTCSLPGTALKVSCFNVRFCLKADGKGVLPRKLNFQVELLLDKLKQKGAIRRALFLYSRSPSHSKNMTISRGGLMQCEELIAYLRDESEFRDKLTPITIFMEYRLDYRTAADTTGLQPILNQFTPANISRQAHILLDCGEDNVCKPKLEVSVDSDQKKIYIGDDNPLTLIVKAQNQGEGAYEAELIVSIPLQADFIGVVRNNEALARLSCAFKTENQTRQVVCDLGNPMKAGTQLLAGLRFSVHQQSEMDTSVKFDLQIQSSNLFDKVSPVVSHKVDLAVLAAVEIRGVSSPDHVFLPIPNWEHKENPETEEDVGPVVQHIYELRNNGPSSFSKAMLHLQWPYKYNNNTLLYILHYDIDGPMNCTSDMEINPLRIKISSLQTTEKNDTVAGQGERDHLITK
T1 sequence (P06756 891-1048 partner limits assumed): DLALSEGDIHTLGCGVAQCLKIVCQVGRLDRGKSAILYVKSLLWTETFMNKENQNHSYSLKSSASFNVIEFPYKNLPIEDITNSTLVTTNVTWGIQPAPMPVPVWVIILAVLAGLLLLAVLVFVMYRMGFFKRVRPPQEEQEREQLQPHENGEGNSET
T1 sequence (P05106 27-788): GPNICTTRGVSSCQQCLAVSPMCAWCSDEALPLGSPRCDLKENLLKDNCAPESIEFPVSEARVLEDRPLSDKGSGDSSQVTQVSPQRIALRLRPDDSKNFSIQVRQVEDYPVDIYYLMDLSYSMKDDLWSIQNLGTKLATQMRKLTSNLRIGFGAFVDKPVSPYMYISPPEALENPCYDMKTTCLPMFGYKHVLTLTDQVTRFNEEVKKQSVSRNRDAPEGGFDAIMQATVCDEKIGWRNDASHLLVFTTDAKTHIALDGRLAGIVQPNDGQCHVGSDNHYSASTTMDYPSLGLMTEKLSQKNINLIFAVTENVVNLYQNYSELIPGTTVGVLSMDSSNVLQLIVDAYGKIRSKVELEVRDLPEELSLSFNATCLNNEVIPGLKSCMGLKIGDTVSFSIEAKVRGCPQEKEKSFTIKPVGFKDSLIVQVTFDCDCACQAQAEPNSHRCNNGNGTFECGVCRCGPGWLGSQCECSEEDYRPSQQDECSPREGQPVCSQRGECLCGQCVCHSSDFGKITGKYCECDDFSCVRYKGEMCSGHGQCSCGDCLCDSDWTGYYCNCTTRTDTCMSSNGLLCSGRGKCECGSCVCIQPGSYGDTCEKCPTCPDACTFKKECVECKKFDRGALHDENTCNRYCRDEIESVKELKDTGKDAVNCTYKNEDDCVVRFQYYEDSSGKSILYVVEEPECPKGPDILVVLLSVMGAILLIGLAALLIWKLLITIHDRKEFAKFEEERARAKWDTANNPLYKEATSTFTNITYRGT
Experimental: αvβ3 was then tested for its ability to negate the anti-proliferative effect of Tum-4 on melanoma cells. Tumstatin and Tum-4 were pre-incubated for 30 minutes at room temperature with αvβ3 integrin protein, then added to WM-164 cells grown in 96-well plates. After 48 hours of incubation, the increase in cell number was determined by methylene blue staining. Tumstatin had no effect on WM-164 cells.

[5] = tested on: MDA-MB435 tumors; experiment: MDA-MB435 breast cancer carcinoma orthotopic model (Example 41); assay type: in vivo; details: 5 mg or 20 mg per kilogram
[6] = tested on: bovine endothelial cells; experiment: Cap-dependent (LUC) / cap-independent (CAT) translation reporter; assay type: cell-based; details: 4.5 μM; 21 hours
[7] = tested on: HEK 293 cells; experiment: Proliferation of control cells, 3H-thymidine incorporation; assay type: cell-based, human; details: Canstatin doses up to 40 mg/ml
Experimental: Bovine calf […] endothelial (C-PAE) cells were grown to confluence in DMEM with 10% fetal calf serum (FCS) and kept contact inhibited for 48 hours. Cells were harvested by trypsinization (Life Technologies/Gibco BRL, Gaithersberg, Md., USA) at 37° C. for 5 minutes. A suspension of 12,500 cells in DMEM with 0.5% FCS was added to each well of a 24-well plate coated with 10 μg/ml fibronectin. The cells were incubated for 24 hours at 37° C. C. with 5% CO2 and 95% humidity. Medium was removed, and replaced with DMEM containing 0.5% FCS (unstimulated) or 10% FCS (stimulated and treated cells). 786-O, PC-3 and HEK 293 cells served as controls and were also grown to confluency, trypsinized and plated in the same manner. Cells were treated with concentrations of Canstatin or endostatin ranging from 0.025 to 40 mg/ml in triplicate. In thymidine incorporation experiments, all wells received […] of ^3H-thymidine at the time of treatment. After 24 hours, medium was removed and the wells were washed 3 times with PBS. Radioactivity was extracted with 1N NaOH and added to a scintillation vial containing 4 ml of ScintiVerse II (Fisher Scientific, Pittsburgh, Pa., USA) solution. Thymidine incorporation was measured using a scintillation counter.

[8] = tested on: 786-O cells; experiment: Annexin V-FITC apoptosis assay; assay type: cell-based, human; details: 15 μg/ml
Experimental: (§1) Annexin V-FITC Labeling. In order to establish apoptosis as the potential mode of action for Canstatin, Annexin V-FITC was used to label externalized phosphatidylserine (PS), to assess apoptotic cells. 0.5×10^6 C-PAE cells, PC-3, 786-O and HEK 293 cells were added to each well of a 6 well tissue culture plate in 10% FBS supplemented DMEM (BioWhittaker, Walkersville, Md., USA) overnight. The next day, fresh medium was added to all wells together with 40 ng/ml TNF-α (positive control) or 15 μg/ml Canstatin. Control cells received an equal volume of PBS. After 24 hours of treatment, medium containing detached cells was collected and attached cells were trypsinized and combined with detached cells and centrifuged at 3,000×g. Cells were then washed and phosphatidyl-serine externalization (an early apoptotic indicator) was measured by labeling with FITC-labeled annexin V (Clontech, Palo Alto, Calif., USA) according to the manufacturer's instructions. Annexin V-FITC-labeled cells were counted using a FAC Star Plus flow cytometer (Becton-Dickenson, Waltham, Mass., USA). For each treatment 15,000 cells were counted and stored in listmode.

[9] = tested on: HEK 293 cells; experiment: Annexin V-FITC apoptosis assay; assay type: cell-based, human; details: 15 μg/ml
Experimental: as §1

[10] = tested on: FLIP; experiment: FLIP protein levels in HUVEC; assay type: cell-based, human; details: one hour after treatment, persisting up to 24 hours
Experimental: FLIP Protein Levels. HUVEC cells were treated as for the ERK assay, supra, and harvested at 0, 1, 3, 6, and 24 hours. FLIP protein levels in serum treated HUVEC cells and serum+Canstatin-treated HUVEC cells were quantified using anti-FLIP antibody (Sata, M. et al., 1998, J. Biol. Chem. 273:33103-6) and normalized for protein loading using levels of vinculin and plotted as a percentage of the 0 hour time points.

B1: Tumstatin: NC1 domain of the α3 chain of type IV collagen, residues 1-244 (SEQ ID NO:10) (protein, listed as Homo sapiens)
chain: GLKGKRGDSGSPATWTTRGFVFTRHSQTTAIPSCPEGTVPLYSGFSFLFVQGNQRAHGQDLGTLGSCLQRFTTMPFLFCNVNDVCNFASRNDYSYWLSTPALMPMNMAPITGRALEPYISRCTVCEGPAIAIAVHSQTTDIPPCPHGWISLWKGFSFIMFTSAGSEGTGQALASPGSCLEEFRASPFLECHGRGTCNYYSNSYSFWLASLNPERMFRKPIPSTVKAGELEKIISRCQVCMKKRH
[1]
  effect on proliferation of HPE cells: no inhibitory effects
[2]
  fold increase in Caspase-3 activity: 1.6 fold

B2: Tumstatin-44-131: residues 44 to 131 of full-length Tumstatin (SEQ ID NO:33) (protein)
chain: FSFLFVQGNQRAHGQDLGTLGSCLQRFTTMPFLFCNVNDVCNFASRNDYSYWLSTPALMPMNMAPITGRALEPYISRCTVCEGPAIAI
modifications: Tumstatin-45-132 (amino acids 45-132 of SEQ ID NO10)
[3]
  effect on viability of PC-3 cells: not seen

B3: Tum-4: residues 181 to 244 of Tumstatin (SEQ ID NO:25) (protein)
chain: EFRASPFLECHGRGTCNYYSNSYSFWLASLNPERMFRKPIPSTVKAGELEKIISRCQVCMKKRH
modifications: Tum-4 (amino acids 181-244 of SEQ ID NO10)
[4]
  recovery of anti-proliferative effect by soluble αvβ3 protein: 76.7%

B4: Tum-1: residues 54 to 244 of Tumstatin, lacking the N-terminal 53 amino acids (SEQ ID NO:22) (protein)
chain: QRAHGQDLGTLGSCLQRFTTMPFLFCNVNDVCNFASRNDYSYWLSTPALMPMNMAPITGRALEPYISRCTVCEGPAIAIAVHSQTTDIPPCPHGWISLWKGFSFIMFTSAGSEGTGQALASPGSCLEEFRASPFLECHGRGTCNYYSNSYSFWLASLNPERMFRKPIPSTVKAGELEKIISRCQVCMKKRH
modifications: Tum-1 (Tumstatin N-53) (amino acids 54-244 of SEQ ID NO10)
[5]
  anti-tumor activity: substantial anti-tumor activity

B5: endostatin: tumor associated angiogenesis inhibitor used as comparator (protein, UniProt P39060 1572-1754, looked up)
Endostatin: HSHRDFQPVLHLVALNSPLSGGMRGIRGADFQCFQQARAVGLAGTFRAFLSSRLQDLYSIVRRADRAAVPIVNLKDELLFPSWEALFSGSEGPLKPGARIFSFDGKDVLRHPTWPQKSVWHGSDPNGRRLTESYCETWRTEAPSATGQASSLLGGRLLGQSAASCHHAYIVLCIENSFMTASK
modifications: Endostatin
[6]
  decrease of cap-dependent translation of LUC: did not affect cap-dependent translation

B6: Canstatin: NC1 domain of the α2 chain of Type IV collagen (SEQ ID NO:6) (protein, listed as Homo sapiens)
chain: VSIGYLLVKHSQTDQEPMCPVGMNKLWSGYSLLYFEGQEKAHNQDLGLAGSCLARFSTMPFLYCNPGDVCYYASRNDKSYWLSTTAPLPMMPVAEDEIKPYISRCSVCEAPAIAIAVHSQDVSIPHCPAGWRSLWIGYSFLMHTAAGDEGGGQSLVSPGSCLEDFRATPFIECNGGRGTCHYYANKYSFWLTTIPEQSFQGSPSADTLKAGLIRTHISRCQVCMKNL
[7]
  effect on proliferation: No significant effect
[8]
  apoptosis of 786-O cells: no significant effect
[9]
  apoptosis of HEK 293 cells: no significant effect
[10]
  FLIP protein levels: decrease in FLIP protein levels
